Publication PMC8811885 (ACS Omega, 2022)

Molecular target: the molecule itself
Test: SEC-MALS

B1: human ELP1 with a C-terminal 3xFLAG tag (natural protein, UniProt O95163 1-1332, looked up)
chain: MRNLKLFRTLEFRDIQGPGNPQCFSLRTEQGTVLIGSEHGLIEVDPVSREVKNEVSLVAEGFLPEDGSGRIVGVQDLLDQESVCVATASGDVILCSLSTQQLECVGSVASGISVMSWSPDQELVLLATGQQTLIMMTKDFEPILEQQIHQDDFGESKFITVGWGRKETQFHGSEGRQAAFQMQMHESALPWDDHRPQVTWRGDGQFFAVSVVCPETGARKVRVWNREFALQSTSEPVAGLGPALAWKPSGSLIASTQDKPNQQDIVFFEKNGLLHGHFTLPFLKDEVKVNDLLWNADSSVLAVWLEDLQREESSIPKTCVQLWTVGNYHWYLKQSLSFSTCGKSKIVSLMWDPVTPYRLHVLCQGWHYLAYDWHWTTDRSVGDNSSDLSNVAVIDGNRVLVTVFRQTVVPPPMCTYQLLFPHPVNQVTFLAHPQKSNDLAVLDASNQISVYKCGDCPSADPTVKLGAVGGSGFKVCLRTPHLEKRYKIQFENNEDQDVNPLKLGLLTWIEEDVFLAVSHSEFSPRSVIHHLTAASSEMDEEHGQLNVSSSAAVDGVIISLCCNSKTKSVVLQLADGQIFKYLWESPSLAIKPWKNSGGFPVRFPYPCTQTELAMIGEEECVLGLTDRCRFFINDIEVASNITSFAVYDEFLLLTTHSHTCQCFCLRDASFKTLQAGLSSNHVSHGEVLRKVERGSRIVTVVPQDTKLVLQMPRGNLEVVHHRALVLAQIRKWLDKLMFKEAFECMRKLRINLNLIYDHNPKVFLGNVETFIKQIDSVNHINLFFTELKEEDVTKTMYPAPVTSSVYLSRDPDGNKIDLVCDAMRAVMESINPHKYCLSILTSHVKKTTPELEIVLQKVHELQGNAPSDPDAVSAEEALKYLLHLVDVNELYDHSLGTYDFDLVLMVAEKSQKDPKEYLPFLNTLKKMETNYQRFTIDKYLKRYEKAIGHLSKCGPEYFPECLNLIKDKNLYNEALKLYSPSSQQYQDISIAYGEHLMQEHMYEPAGLMFARCGAHEKALSAFLTCGNWKQALCVAAQLNFTKDQLVGLGRTLAGKLVEQRKHIDAAMVLEECAQDYEEAVLLLLEGAAWEEALRLVYKYNRLDIIETNVKPSILEAQKNYMAFLDSQTATFSRHKKRLLVVRELKEQAQQAGLDDEVPHGQESDLFSETSSVVSGSEMSGKYSHSNSRISARSSKNRRKAERKKHSLKEGSPLEDLALLEALSEVVQNTENLKDEVYHILKVLFLFEFDEQGRELQKAFEDTLQLMERSLPEIWTLTYQQNSATPVLGPNSTANSIMASYQQQKTSVPVLDAELFIPPKINRRTQWKLSLLD
In the case of B1, the “stoichiometry N” value is reported as 2.
